# Positions count from the first letter of the chain named.
# Molecular target: T1, GRIP1_4, Q9Y3R0
# T1 sequence (Q9Y3R0 467-571, limits assumed, looked up): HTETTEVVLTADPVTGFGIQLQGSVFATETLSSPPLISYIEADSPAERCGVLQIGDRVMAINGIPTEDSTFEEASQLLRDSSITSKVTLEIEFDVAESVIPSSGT
# Test: holdup assay
# Set-up: key: below the threshold = too weak to quantify, mostly under pKd 3.1 to 4
# Conditions: plain residues with an end cap or a label only (N-terminal biotin on a linker: ado-ado)
row,Binder,pKd
1,"FTLPAESSEI [PLEKHG7, Q6ZR37]",below the threshold
2,"EWTDERQSKV [GAB3, Q8WWW8]",below the threshold

# Molecular target: FRMPD4, Q14CM0
# Sequence (Q14CM0 67-160): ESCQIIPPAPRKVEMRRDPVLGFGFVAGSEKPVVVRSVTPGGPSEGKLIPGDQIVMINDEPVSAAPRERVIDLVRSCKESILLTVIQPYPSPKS
# Test: holdup assay
# Set-up: key: below the threshold = too weak to quantify, mostly under pKd 3.1 to 4
# Conditions: plain residues with an end cap or a label only (N-terminal biotin on a linker: ado-ado)
row,Binder,pKd
1,"FTLPAESSEI [PLEKHG7, Q6ZR37]",below the threshold
2,"EWTDERQSKV [GAB3, Q8WWW8]",below the threshold

# Molecular target: GRID2IP_1, A4D2P6
# Sequence (A4D2P6 1-87): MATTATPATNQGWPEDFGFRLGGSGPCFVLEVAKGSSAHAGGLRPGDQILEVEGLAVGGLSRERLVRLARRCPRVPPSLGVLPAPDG
# Test: holdup assay
# Set-up: key: below the threshold = too weak to quantify, mostly under pKd 3.1 to 4
# Conditions: plain residues with an end cap or a label only (N-terminal biotin on a linker: ado-ado)
row,Binder,pKd
1,"FTLPAESSEI [PLEKHG7, Q6ZR37]",below the threshold
2,"EWTDERQSKV [GAB3, Q8WWW8]",below the threshold

# Molecular target: DLG1_1, Q12959
# Test: holdup assay
# Set-up: key: below the threshold = too weak to quantify, mostly under pKd 3.1 to 4
# Conditions: plain residues with an end cap or a label only (N-terminal biotin on a linker: ado-ado)
row,Binder,pKd
1,"FTLPAESSEI [PLEKHG7, Q6ZR37]",below the threshold
2,"EWTDERQSKV [GAB3, Q8WWW8]",3.48

# Molecular target: IL16_4, Q14005
# Sequence (Q14005 1229-1329): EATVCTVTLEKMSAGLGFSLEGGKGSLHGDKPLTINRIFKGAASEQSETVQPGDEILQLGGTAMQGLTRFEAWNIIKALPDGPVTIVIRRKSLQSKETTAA
# Test: holdup assay
# Set-up: key: below the threshold = too weak to quantify, mostly under pKd 3.1 to 4
# Conditions: plain residues with an end cap or a label only (N-terminal biotin on a linker: ado-ado)
row,Binder,pKd
1,"FTLPAESSEI [PLEKHG7, Q6ZR37]",below the threshold
2,"EWTDERQSKV [GAB3, Q8WWW8]",below the threshold

# Molecular target: MAGI2_4, Q86UL8
# Sequence (Q86UL8 772-865): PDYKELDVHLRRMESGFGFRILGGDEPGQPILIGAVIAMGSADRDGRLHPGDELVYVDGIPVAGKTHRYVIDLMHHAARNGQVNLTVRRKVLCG
# Test: holdup assay
# Set-up: key: below the threshold = too weak to quantify, mostly under pKd 3.1 to 4
# Conditions: plain residues with an end cap or a label only (N-terminal biotin on a linker: ado-ado)
row,Binder,pKd
1,"FTLPAESSEI [PLEKHG7, Q6ZR37]",below the threshold
2,"EWTDERQSKV [GAB3, Q8WWW8]",below the threshold

# Molecular target: CASK, O14936
# Sequence (O14936 487-570): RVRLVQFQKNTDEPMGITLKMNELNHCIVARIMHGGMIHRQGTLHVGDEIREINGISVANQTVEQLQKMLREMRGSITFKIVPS
# Test: holdup assay
# Set-up: key: below the threshold = too weak to quantify, mostly under pKd 3.1 to 4
# Conditions: plain residues with an end cap or a label only (N-terminal biotin on a linker: ado-ado)
row,Binder,pKd
1,"FTLPAESSEI [PLEKHG7, Q6ZR37]",below the threshold
2,"EWTDERQSKV [GAB3, Q8WWW8]",below the threshold

# Molecular target: DLG2_2, Q15700
# Sequence (Q15700 189-283): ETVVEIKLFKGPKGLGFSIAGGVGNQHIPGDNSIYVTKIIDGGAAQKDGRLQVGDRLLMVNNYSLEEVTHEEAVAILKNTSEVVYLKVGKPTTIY
# Test: holdup assay
# Set-up: key: below the threshold = too weak to quantify, mostly under pKd 3.1 to 4
# Conditions: plain residues with an end cap or a label only (N-terminal biotin on a linker: ado-ado)
row,Binder,pKd
1,"FTLPAESSEI [PLEKHG7, Q6ZR37]",below the threshold
2,"EWTDERQSKV [GAB3, Q8WWW8]",3.89

# Molecular target: FRMPD2_1, Q68DX3
# Sequence (Q68DX3 770-861): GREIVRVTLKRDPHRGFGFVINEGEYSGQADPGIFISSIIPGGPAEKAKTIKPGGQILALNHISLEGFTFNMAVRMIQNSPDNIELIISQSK
# Test: holdup assay
# Set-up: key: below the threshold = too weak to quantify, mostly under pKd 3.1 to 4
# Conditions: plain residues with an end cap or a label only (N-terminal biotin on a linker: ado-ado)
row,Binder,pKd
1,"FTLPAESSEI [PLEKHG7, Q6ZR37]",below the threshold
2,"EWTDERQSKV [GAB3, Q8WWW8]",below the threshold

# Molecular target: GRIP2_3, Q9C0E4
# Sequence (Q9C0E4 238-339): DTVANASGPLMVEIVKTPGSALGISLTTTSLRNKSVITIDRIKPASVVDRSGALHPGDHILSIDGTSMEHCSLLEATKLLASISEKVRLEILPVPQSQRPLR
# Test: holdup assay
# Set-up: key: below the threshold = too weak to quantify, mostly under pKd 3.1 to 4
# Conditions: plain residues with an end cap or a label only (N-terminal biotin on a linker: ado-ado)
row,Binder,pKd
1,"FTLPAESSEI [PLEKHG7, Q6ZR37]",below the threshold
2,"EWTDERQSKV [GAB3, Q8WWW8]",below the threshold

# Molecular target: PDLIM1, O00151
# Sequence (O00151 1-87): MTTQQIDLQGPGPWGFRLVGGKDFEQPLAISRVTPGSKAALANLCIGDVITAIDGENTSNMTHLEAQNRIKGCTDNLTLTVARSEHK
# Test: holdup assay
# Set-up: key: below the threshold = too weak to quantify, mostly under pKd 3.1 to 4
# Conditions: plain residues with an end cap or a label only (N-terminal biotin on a linker: ado-ado)
row,Binder,pKd
1,"FTLPAESSEI [PLEKHG7, Q6ZR37]",below the threshold
2,"EWTDERQSKV [GAB3, Q8WWW8]",below the threshold

# Molecular target: T2, SNTA1, Q13424
# T2 sequence (Q13424 82-180, limits assumed, looked up): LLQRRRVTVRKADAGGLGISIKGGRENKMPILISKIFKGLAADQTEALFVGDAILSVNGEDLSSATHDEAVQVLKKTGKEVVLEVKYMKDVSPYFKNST
# Test: holdup assay
# Set-up: key: below the threshold = too weak to quantify, mostly under pKd 3.1 to 4
# Conditions: plain residues with an end cap or a label only (N-terminal biotin on a linker: ado-ado)
row,Binder,pKd
1,"FTLPAESSEI [PLEKHG7, Q6ZR37]",below the threshold
2,"EWTDERQSKV [GAB3, Q8WWW8]",4.43

# Molecular target: LIMK2, P53671
# Sequence (P53671 143-248): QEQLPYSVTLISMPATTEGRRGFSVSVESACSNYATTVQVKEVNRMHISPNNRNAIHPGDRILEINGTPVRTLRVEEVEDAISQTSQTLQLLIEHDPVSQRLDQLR
# Test: holdup assay
# Set-up: key: below the threshold = too weak to quantify, mostly under pKd 3.1 to 4
# Conditions: plain residues with an end cap or a label only (N-terminal biotin on a linker: ado-ado)
row,Binder,pKd
1,"FTLPAESSEI [PLEKHG7, Q6ZR37]",below the threshold
2,"EWTDERQSKV [GAB3, Q8WWW8]",below the threshold

# Molecular target: TJP2_1, Q9UDY2
# Sequence (Q9UDY2 24-128): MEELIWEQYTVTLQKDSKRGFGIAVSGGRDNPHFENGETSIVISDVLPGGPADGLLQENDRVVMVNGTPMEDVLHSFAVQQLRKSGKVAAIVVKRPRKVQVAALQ
# Test: holdup assay
# Set-up: key: below the threshold = too weak to quantify, mostly under pKd 3.1 to 4
# Conditions: plain residues with an end cap or a label only (N-terminal biotin on a linker: ado-ado)
row,Binder,pKd
1,"FTLPAESSEI [PLEKHG7, Q6ZR37]",below the threshold
2,"EWTDERQSKV [GAB3, Q8WWW8]",below the threshold

# Molecular target: DLG4_1, P78352
# Sequence (P78352 62-152): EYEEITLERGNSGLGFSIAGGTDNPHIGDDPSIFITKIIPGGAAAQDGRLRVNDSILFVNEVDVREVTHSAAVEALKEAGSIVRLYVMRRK
# Test: holdup assay
# Set-up: key: below the threshold = too weak to quantify, mostly under pKd 3.1 to 4
# Conditions: plain residues with an end cap or a label only (N-terminal biotin on a linker: ado-ado)
row,Binder,pKd
1,"FTLPAESSEI [PLEKHG7, Q6ZR37]",below the threshold
2,"EWTDERQSKV [GAB3, Q8WWW8]",3.79

# Molecular target: T3, MPP6, Q9NZW5
# T3 sequence (Q9NZW5 125-219, limits assumed, looked up): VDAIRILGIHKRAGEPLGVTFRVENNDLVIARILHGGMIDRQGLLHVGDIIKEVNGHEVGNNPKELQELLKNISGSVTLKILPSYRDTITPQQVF
# Test: holdup assay
# Set-up: key: below the threshold = too weak to quantify, mostly under pKd 3.1 to 4
# Conditions: plain residues with an end cap or a label only (N-terminal biotin on a linker: ado-ado)
row,Binder,pKd
1,"FTLPAESSEI [PLEKHG7, Q6ZR37]",below the threshold
2,"EWTDERQSKV [GAB3, Q8WWW8]",below the threshold

# Molecular target: T4, APBA1_2, Q02410
# T4 sequence (Q02410 742-832, limits assumed, looked up): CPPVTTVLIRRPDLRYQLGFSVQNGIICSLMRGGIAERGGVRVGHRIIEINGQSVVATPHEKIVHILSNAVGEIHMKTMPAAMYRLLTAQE
# Test: holdup assay
# Set-up: key: below the threshold = too weak to quantify, mostly under pKd 3.1 to 4
# Conditions: plain residues with an end cap or a label only (N-terminal biotin on a linker: ado-ado)
row,Binder,pKd
1,"FTLPAESSEI [PLEKHG7, Q6ZR37]",below the threshold
2,"EWTDERQSKV [GAB3, Q8WWW8]",3.63

# Molecular target: MAGI3_2, Q5TCQ9
# Sequence (Q5TCQ9 398-503): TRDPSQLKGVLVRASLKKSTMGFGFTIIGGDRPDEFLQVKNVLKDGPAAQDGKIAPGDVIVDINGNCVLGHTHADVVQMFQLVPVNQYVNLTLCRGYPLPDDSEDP
# Test: holdup assay
# Set-up: key: below the threshold = too weak to quantify, mostly under pKd 3.1 to 4
# Conditions: plain residues with an end cap or a label only (N-terminal biotin on a linker: ado-ado)
row,Binder,pKd
1,"FTLPAESSEI [PLEKHG7, Q6ZR37]",below the threshold
2,"EWTDERQSKV [GAB3, Q8WWW8]",3.6

# Molecular target: T5, NHERF3_3, Q5T2W1
# T5 sequence (Q5T2W1 238-333, limits assumed, looked up): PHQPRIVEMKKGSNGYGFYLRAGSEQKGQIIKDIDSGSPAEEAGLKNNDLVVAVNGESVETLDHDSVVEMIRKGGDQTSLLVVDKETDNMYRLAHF
# Test: holdup assay
# Set-up: key: below the threshold = too weak to quantify, mostly under pKd 3.1 to 4
# Conditions: plain residues with an end cap or a label only (N-terminal biotin on a linker: ado-ado)
row,Binder,pKd
1,"FTLPAESSEI [PLEKHG7, Q6ZR37]",below the threshold
2,"EWTDERQSKV [GAB3, Q8WWW8]",below the threshold

# Molecular target: T6, ARHGAP21, Q5T5U3
# T6 sequence (Q5T5U3 45-169, limits assumed, looked up): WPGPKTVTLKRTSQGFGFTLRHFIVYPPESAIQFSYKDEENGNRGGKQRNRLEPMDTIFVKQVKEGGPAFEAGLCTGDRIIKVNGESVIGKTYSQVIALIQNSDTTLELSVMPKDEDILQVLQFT
# Test: holdup assay
# Set-up: key: below the threshold = too weak to quantify, mostly under pKd 3.1 to 4
# Conditions: plain residues with an end cap or a label only (N-terminal biotin on a linker: ado-ado)
row,Binder,pKd
1,"FTLPAESSEI [PLEKHG7, Q6ZR37]",below the threshold
2,"EWTDERQSKV [GAB3, Q8WWW8]",4.07

# Molecular target: MAGI2_6, Q86UL8
# Sequence (Q86UL8 1141-1229): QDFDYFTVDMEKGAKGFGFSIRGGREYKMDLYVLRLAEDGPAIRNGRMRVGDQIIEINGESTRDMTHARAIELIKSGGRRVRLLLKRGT
# Test: holdup assay
# Set-up: key: below the threshold = too weak to quantify, mostly under pKd 3.1 to 4
# Conditions: plain residues with an end cap or a label only (N-terminal biotin on a linker: ado-ado)
row,Binder,pKd
1,"FTLPAESSEI [PLEKHG7, Q6ZR37]",below the threshold
2,"EWTDERQSKV [GAB3, Q8WWW8]",3.53

# Molecular target: Inadl_2, Q8NI35
# Sequence (Q8NI35 238-335): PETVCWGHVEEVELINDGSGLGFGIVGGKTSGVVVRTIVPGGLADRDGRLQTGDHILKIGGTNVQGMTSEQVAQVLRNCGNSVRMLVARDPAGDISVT
# Test: holdup assay
# Set-up: key: below the threshold = too weak to quantify, mostly under pKd 3.1 to 4
# Conditions: plain residues with an end cap or a label only (N-terminal biotin on a linker: ado-ado)
row,Binder,pKd
1,"FTLPAESSEI [PLEKHG7, Q6ZR37]",below the threshold
2,"EWTDERQSKV [GAB3, Q8WWW8]",below the threshold

# Molecular target: ARHGEF12, Q9NZN5-2
# Sequence (Q9NZN5 other isoform, or with tags, fused parts or gaps): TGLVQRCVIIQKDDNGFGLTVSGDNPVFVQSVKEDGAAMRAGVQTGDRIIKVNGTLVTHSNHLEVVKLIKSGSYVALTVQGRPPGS
# Test: holdup assay
# Set-up: key: below the threshold = too weak to quantify, mostly under pKd 3.1 to 4
# Conditions: plain residues with an end cap or a label only (N-terminal biotin on a linker: ado-ado)
row,Binder,pKd
1,"FTLPAESSEI [PLEKHG7, Q6ZR37]",4.18
2,"EWTDERQSKV [GAB3, Q8WWW8]",3.68

# Molecular target: T7, PCLO, Q9Y6V0
# T7 sequence (Q9Y6V0 4491-4600, limits assumed, looked up): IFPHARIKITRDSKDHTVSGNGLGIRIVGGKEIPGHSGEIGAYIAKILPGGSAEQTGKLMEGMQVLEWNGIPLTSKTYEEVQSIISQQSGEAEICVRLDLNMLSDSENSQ
# Test: holdup assay
# Set-up: key: below the threshold = too weak to quantify, mostly under pKd 3.1 to 4
# Conditions: plain residues with an end cap or a label only (N-terminal biotin on a linker: ado-ado)
row,Binder,pKd
1,"FTLPAESSEI [PLEKHG7, Q6ZR37]",below the threshold
2,"EWTDERQSKV [GAB3, Q8WWW8]",below the threshold

# Molecular target: T8, APBA2_2, Q99767
# T8 sequence (Q99767 654-744, limits assumed, looked up): T4 sequence (Q02410 742-832, limits assumed, looked up) with R10K, R15K, P59A, H65Q, I66A, A70S, Y84F, A89G
# Test: holdup assay
# Set-up: key: below the threshold = too weak to quantify, mostly under pKd 3.1 to 4
# Conditions: plain residues with an end cap or a label only (N-terminal biotin on a linker: ado-ado)
row,Binder,pKd
1,"FTLPAESSEI [PLEKHG7, Q6ZR37]",below the threshold
2,"EWTDERQSKV [GAB3, Q8WWW8]",below the threshold

# Molecular target: T9, MPP2, Q14168
# T9 sequence (Q14168 180-250, limits assumed, looked up): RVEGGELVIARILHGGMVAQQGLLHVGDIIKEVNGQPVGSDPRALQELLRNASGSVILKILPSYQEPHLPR
# Test: holdup assay
# Set-up: key: below the threshold = too weak to quantify, mostly under pKd 3.1 to 4
# Conditions: plain residues with an end cap or a label only (N-terminal biotin on a linker: ado-ado)
row,Binder,pKd
1,"FTLPAESSEI [PLEKHG7, Q6ZR37]",below the threshold
2,"EWTDERQSKV [GAB3, Q8WWW8]",below the threshold

# Molecular target: GORASP2, Q9H8Y8
# Test: holdup assay
# Set-up: key: below the threshold = too weak to quantify, mostly under pKd 3.1 to 4
# Conditions: plain residues with an end cap or a label only (N-terminal biotin on a linker: ado-ado)
row,Binder,pKd
1,"FTLPAESSEI [PLEKHG7, Q6ZR37]",below the threshold
2,"EWTDERQSKV [GAB3, Q8WWW8]",below the threshold

# Molecular target: NHERF2_2, Q15599
# Sequence (Q15599 142-238): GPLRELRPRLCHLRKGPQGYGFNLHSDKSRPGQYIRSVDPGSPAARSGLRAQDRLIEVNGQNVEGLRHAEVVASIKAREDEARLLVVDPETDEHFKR
# Test: holdup assay
# Set-up: key: below the threshold = too weak to quantify, mostly under pKd 3.1 to 4
# Conditions: plain residues with an end cap or a label only (N-terminal biotin on a linker: ado-ado)
row,Binder,pKd
1,"FTLPAESSEI [PLEKHG7, Q6ZR37]",below the threshold
2,"EWTDERQSKV [GAB3, Q8WWW8]",3.8

# Source: paper PMC9482650, “Quantitative fragmentomics allow affinity mapping of interactomes” (Nature Communications, 2022)
